In US20250011823A1, “Method for preparing ultra-low molecular weight Dendrobium oligosaccharides by enzymatic hydrolysis and its application” (Zhejiang A & F University, priority 2022, published 2025):

Test: ThDPS glycosidase activity determination (DNS method), hydrolysis of Dendrobium polysaccharides
Assay type: biochemical
Settings: for enzymatic activity of expression product (hydrolysis of Dendrobium polysaccharides): crude supernatant of recombinant E. coli BL21 (DE3)
Procedure: Enzymatic activity definition: the amount of enzyme that can convert 1micromole of substrate per 1 minute at 37° C. is defined as one unit of enzymatic activity (U).
Enzymatic activity determination: ThDPS glycosidases can decompose Dendrobium polysaccharides into mannan oligosaccharides. The mannan oligosaccharide has reducibility and can undergo a certain chemical reaction with a DNS reagent under alkaline conditions to generate 3-amin-5-nitrosalicylic acid that is brownish-red under boiling conditions. The amount of reducing sugar generated can be measured with a spectrophotometer. The gradation of the color of the acid is related to the content of the reducing sugar.
Specific steps for enzymatic activity determination are as follows: a total reaction system is 2 mL, containing 1 mL of a Dendrobium polysaccharide solution with a concentration of 4 g/L, 200 μL of a phosphate buffer with a concentration of 200 mM, and 10 μL of an enzyme solution. 10 μL of distilled water is added to a control group, and water is replenished to a total volume of 2 mL for all reaction solutions. A mixed reaction solution is incubated at 37° C. for 30 min. After being taken out, the incubated mixed reaction solution is placed in a boiling water bath for 1 min to inactivate the enzymes. 2 mL of a DNS solution is added into each tube, and the tube is placed in the boiling water bath for 3 min, and then is rapidly cooled, and 1 mL of distilled water is added […]. The absorbance is measured at the wavelength of 540 nm to determine the enzymatic activity.
The recombinant bacteria constructed in step 1 were inoculated into a test tube containing 5 mL of LB medium (containing 100 ug/mL ampicillin), and underwent shake-flask culture at 37° C. and 200 r/min for 16 h. As a seed solution, the cultured bacterial solution was transferred into 100 mL of LB liquid medium (containing 100 ug/mL ampicillin) with an inoculum size of 1%, and underwent shake-flask culture at 37° C. and 200 rpm until OD600 was 0.6. 0.1 mM of IPTG was added to induce expression, and shaking culture was carried out for 24 h at 37° C. and 200 rpm. The obtained fermentation broth was centrifuged at 8000×g and 4° C. for 10 min, the supernatant was removed, and bacterial cells were collected. The bacterial cells were resuspended with 8 mL of 50 mM PBS of pH=7.0. After ultrasonic crushing, centrifugation was carried out for 10 min at 4° C. and 12000×g, precipitates were removed, the supernatant was collected for the hydrolysis reaction of Dendrobium polysaccharides, and hydrolysis products were detected by using a DNS method.
By taking Dendrobium polysaccharides as a substrate, the enzymatic property of ThDPS was characterized. • 1. 0.2 g, 0.4 g, 0.8 g, 1.2 g, 1.6 g, 2.0 g, 2.4 g, and 3 g of Dendrobium polysaccharides were (Mw>100000 Da) weighed and dissolved in 1 L of distilled water to prepare Dendrobium polysaccharide solutions, and then 20 μL of an enzyme solution was added and reacted at 37° C. for 30 min. The enzyme solution was an enzyme solution of ThDPS prepared in Example 2 diluted with deionized water to a concentration of 100 μg/mL. […] Optimum temperature determination: 10 g/L Dendrobium polysaccharides were formulated as a reaction substrate. To a reaction system was added 0.4 mL of Dendrobium polysaccharides with a final concentration of 2 g/L, 200 μL of a 500 mM Tris-HCl buffer, and 20 μl of an enzyme solution (providing 10 U of catalytic activity), and 20 μl of distilled water was added to a control group. The water was replenished to a total volume of 2 mL for all reaction solutions. After fair mixing, the mixtures were placed in water baths at 20° C., 30° C., 40° C., 50° C., […], 70° C., 80° C., and […] and incubated for 30 min. The enzyme solution was an enzyme solution of ThDPS prepared in Example 2 diluted with deionized water to a concentration of 100 μg/mL. […]

B1: THGH: T. halotolerans-derived glycosidase expressed in E. coli from the non-optimized gene SEQ ID NO.1 (protein)
chain: MRKRLTVAAATILALLASVFVFAQPANAATGFYVDNGRLYEAGGQEFVIRGVSHPHAWYAQETDSFAGIKSHGANTVRVVLSNGVRWTKNDAADVANVISLCKQNRLICMLEVHDTTGYGEQSGASTLDQAVDYWIEIQSALEGQEDYVLINIGNEPYGNDSATVADWASDTSAAIQRMRDAGFDHTLVVDAPNWGQDWSHTMRDNAGSVYTSDPTGNTVFSIHMYGVYEQGSTVTSYLEHFVNAGLPIMIGEFGHDHSDGNPDEDTIMAEAERLGLGYIGWSWSGNGGGVEYLDMVNNFDADSLTSWGQRIFYGANGISSTAEEATVYGGGAPTDPPTDPPAEGDCSADYTTVGSWGGGFQGEVTVTAGDSAISNWTVSWTFPGGQSVSHGWNASFGGGSPVTASNAPYNGQLGAGQSTTFGFIGSGSAPGSLTLTCTTD
modifications: Thermobifida halotolerans
- enzymatic activity of expression product (hydrolysis of Dendrobium polysaccharides) (DNS method): 68 U/OD bacterial cells
- hydrolysis activity on the Dendrobium polysaccharides (in words) (expression products of recombinant E. coli, DNS method, FIG. 1): significant hydrolysis activity

B2: ThDPS: T. halotolerans-derived glycosidase (SEQ ID NO.3) expressed in E. coli from codon-optimized gene SEQ ID NO.2, with 6× His-tag (protein)
chain: B1 chain
modifications: 6xHis tag; Thermobifida halotolerans
- pH of maximum activity (50 mM phosphate buffer, 37° C., 30 min): 7.0
- optimal reaction temperature (2 g/L Dendrobium polysaccharides, Tris-HCl buffer, 30 min, 20-90° C.): 60 °C
- substrate inhibition (in words) (Dendrobium polysaccharide 0.2 g/L to 3 g/L): no significant substrate inhibition
- increase of expression enzymatic activity level versus THGH without codon optimization (codon-optimized sequence, E. coli BL21 (DE3)): 2.75 times
- enzymatic activity of expression product (hydrolysis of Dendrobium polysaccharides) (DNS method): 187 U/OD bacterial cells
- relative activity (percentage of maximum activity) (range of pH 6.0 to 10.0): more than 90%
- specific enzymatic activity (substrate concentration 2.4 g/L, 37° C., 30 min): 5100 U/mg
- relative activity (percentage of maximum activity) (temperature between 40° C. and 60° C.): ≥ 85%
